Values quoted from earlier work, collected in PMC2696053.
pKd: −log10 of the molar value.

How the values were obtained:
[1] = target: Delta ECD (Drosophila melanogaster) (UniProt P10041); experiment: ELISA
[2] = target: Delta-like 1 (Homo sapiens) (UniProt O00548); experiment: surface plasmon resonance
Chain of UniProt O00548 (O00548 18-545, stated change not applied): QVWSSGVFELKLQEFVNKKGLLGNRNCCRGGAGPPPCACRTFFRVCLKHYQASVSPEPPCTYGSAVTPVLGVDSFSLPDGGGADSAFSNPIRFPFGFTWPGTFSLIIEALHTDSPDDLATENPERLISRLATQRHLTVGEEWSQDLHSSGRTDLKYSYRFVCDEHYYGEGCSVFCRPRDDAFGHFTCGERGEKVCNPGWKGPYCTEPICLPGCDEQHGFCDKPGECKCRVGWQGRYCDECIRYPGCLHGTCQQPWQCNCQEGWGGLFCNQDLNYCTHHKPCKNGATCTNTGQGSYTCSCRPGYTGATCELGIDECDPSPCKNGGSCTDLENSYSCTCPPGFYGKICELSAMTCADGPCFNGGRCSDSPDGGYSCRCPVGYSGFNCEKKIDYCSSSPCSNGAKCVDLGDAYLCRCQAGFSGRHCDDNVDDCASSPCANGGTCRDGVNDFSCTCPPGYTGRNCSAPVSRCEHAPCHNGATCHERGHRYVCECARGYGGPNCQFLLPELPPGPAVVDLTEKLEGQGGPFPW

Chain of UniProt P10041 (P10041 19-596, stated change not applied): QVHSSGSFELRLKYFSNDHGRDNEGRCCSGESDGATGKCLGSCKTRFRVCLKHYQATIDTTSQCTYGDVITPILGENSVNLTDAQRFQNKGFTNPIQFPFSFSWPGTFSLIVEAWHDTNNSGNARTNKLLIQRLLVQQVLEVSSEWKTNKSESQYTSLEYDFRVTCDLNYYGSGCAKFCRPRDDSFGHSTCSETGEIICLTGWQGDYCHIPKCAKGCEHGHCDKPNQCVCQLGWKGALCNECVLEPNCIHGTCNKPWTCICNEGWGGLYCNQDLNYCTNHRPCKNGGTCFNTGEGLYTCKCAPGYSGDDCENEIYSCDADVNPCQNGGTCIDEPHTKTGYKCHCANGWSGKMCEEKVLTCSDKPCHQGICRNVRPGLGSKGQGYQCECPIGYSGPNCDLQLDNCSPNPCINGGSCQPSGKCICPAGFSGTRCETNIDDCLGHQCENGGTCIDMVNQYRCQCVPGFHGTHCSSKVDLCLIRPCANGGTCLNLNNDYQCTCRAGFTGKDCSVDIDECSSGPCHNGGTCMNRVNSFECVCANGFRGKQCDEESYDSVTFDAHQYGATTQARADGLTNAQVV

pKd [1] | pKd [2] | Substance
8.73 |  | Notch EGF-like repeats 11-20 (from UniProt P07207)
 | 3.89 | Notch1 EGF-like repeats 11-14 (from UniProt P46531)
